Experimental data as given in US9297028B2, “Fermentive production of four carbon alcohols” (Butamax Advanced Biofuels LLC, priority 2005, dated 2016).

Columns and labels:
[1] = Hydroxybutyryl-CoA dehydrogenase activity (rate of oxidation of NADH, absorbance at 340 nm); format: biochemical
Procedure: Hydroxybutyryl-CoA dehydrogenase activity was determined by measuring the rate of oxidation of NADH as measured by the decrease in absorbance at 340 nm. A standard assay mixture contained 50 mM MOPS, pH 7.0, 1 mM DTT and 0.2 mM NADH. The cocktail was equilibrated for 5 min at 37° C. and then the cell free extract was added. Reactions were initiated by addition of the substrate, 0.1 mM acetoacetyl-CoA. In one typical assay, the specific activity of the BHBD protein in the induced culture was determined to be 57.4 μmol mg^−1 min^−1 compared to 0.885 μmol mg^−1 min^−1 in the uninduced culture.
(§1) For enzyme activity analysis, a single colony of each strain was streaked onto a fresh plate containing SD minimal drop out medium and incubated at 30° C. for 2 days. The cells on this plate were used to inoculate 20 mL of SD drop out medium and in a 125 mL shake flask and grown overnight at 30° C., with shaking at 250 rpm. The optical density (OD600) of the overnight culture was measured, and the culture was diluted to an OD600=0.1 in 250 mL of the same medium in a 1.0 L shake flask, and grown at 30° C. with shaking at 250 rpm to an OD600 of between 0.8 to 1.0. The cells were then harvested by centrifugation at 2000×g for 10 min, and resuspended in 20 mL of 50 mM Tris-HCl buffer, pH 8.5. Enzyme assays were performed as described above.

[2] = Acetoacetyl-CoA thiolase activity in cell free extracts (decrease in absorbance at 303 nm); format: biochemical
Procedure: Acetoacetyl-CoA thiolase activity in the cell free extracts was measured as degradation of a Mg^2+-acetoacetyl-CoA complex by monitoring the decrease in absorbance at 303 nm. Standard assay conditions were 100 mM Tris-HCl pH 8.0, 1 mM DTT (dithiothreitol) and 10 mM MgCl2. The cocktail was equilibrated for 5 min at 37° C.; then the cell-free extract was added. The reaction was initiated with the addition of 0.05 mM acetoacetyl-CoA plus 0.2 mM CoA. Protein concentration was measured by either the Bradford method or by the Bicinchoninic Kit (Sigma, catalog no. BCA-1). Bovine serum albumin (Bio-Rad, Hercules, Calif.) was used as the standard in both cases. In one typical assay, the specific activity of the ThlA protein in the induced culture was determined to be 16.0 μmol mg^−1 min^−1 compared to 0.27 μmol mg^−1 min^−1 in the uninduced culture.
as §1

[3] = yeast strain DPD5200 (BY4743/pNY103), standard conditions
[4] = yeast strain DPD5206 (BY4741/pNY102)

| Substance | Hbd activity ([1]; yeast BY4741 containing pNY10, hbd under GPD promoter) [U/mg] | Hbd activity ([1]; yeast strain BY4741 (pNY6), in words) | Hbd enzyme activity [1, 3] [U/mg] | Hbd activity [1, 4] [U/mg] | Hbd activity ([1]; yeast, GALL promoter controlled hbd) [U/mg] | ThlA activity ([2]; yeast BY4741 containing pNY10 (thlA with one base deletion, truncated protein), in words) | ThlA activity ([2]; yeast BY4741 transformed with pNY12 (FBA1 promoter)) [U/mg] | ThlA enzyme activity [2, 3] [U/mg] | ThlA activity [2, 4] [U/mg] |
| --- | --- | --- | --- | --- | --- | --- | --- | --- | --- |
| BHBD: 3-hydroxybutyryl-CoA dehydrogenase encoded by hbd from C. acetobutylicum ATCC 824, SEQ ID NO:6 | 1.8 | good | 0.21 | 0.76 | 0.40 | – | – | – | – |
| ThlA: acetyl-CoA acetyltransferase encoded by thlA from C. acetobutylicum ATCC 824, SEQ ID NO:2 | – | – | – | – | – | no ThlA activity | 1.66 | 0.49 | 1.24 |
